B1: WW domain-binding protein 2 (Homo sapiens), Q969T9 (parent)
chain: MALNKNHSEGGGVIVNNTESILMSYDHVELTFNDMKNVPEAFKGTKKGTVYLTPYRVIFLSKGKDAMQSFMMPFYLMKDCEIKQPVFGANYIKGTVKAEAGGGWEGSASYKLTFTAGGAIEFGQRMLQVASQASRGEVPSGAYGYSYMPSGAYVYPPPVANGMYPCPPGYPYPPPPPEFYPGPPMMDGAMGYVQPPPPPYPGPMEPPVSGPDVPSTPAAEAKAAEAAASAYYNPGNPHNVYMPTSQPPPPPYYPPEDKKTQ

Variants of B1 are the subject of this assay. The conditions noted are these: with wwtr1_human WWTR1, Q9GZV5.
wwtr1_human WWTR1, Q9GZV5, sequence (Q9GZV5 whole entry): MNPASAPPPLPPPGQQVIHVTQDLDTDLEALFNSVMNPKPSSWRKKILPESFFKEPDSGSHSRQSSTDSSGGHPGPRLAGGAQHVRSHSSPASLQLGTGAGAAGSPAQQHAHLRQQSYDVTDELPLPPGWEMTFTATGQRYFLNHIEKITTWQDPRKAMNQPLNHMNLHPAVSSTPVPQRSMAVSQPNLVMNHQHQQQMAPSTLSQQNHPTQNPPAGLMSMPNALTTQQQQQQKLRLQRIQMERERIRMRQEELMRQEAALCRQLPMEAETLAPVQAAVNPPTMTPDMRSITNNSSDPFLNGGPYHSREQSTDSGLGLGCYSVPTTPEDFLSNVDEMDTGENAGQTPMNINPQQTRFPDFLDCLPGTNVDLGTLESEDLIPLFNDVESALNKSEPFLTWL
In the case of MALNKNHSEGGGVIVNNTESILMSYDHVELTFNDMKNVPEAFKGTKKGTVYLTPYRVIFLSKGKDAMQSFMMPFYLMKDCEIKQPVFGANYIKGTVKAEAGGGWEGSASYKLTFTAGGAIEFGQRMLQVASQASRGEVPSGAYGYSYMPSGAYVYPPPVANGMYPCPPGYPYPPPPPEFYPGPPMMDGAMGYVQPPPPPAPGPMEPPVSGPDVPSTPAAEAKAAEAAASAYYNPGNPHNVYMPTSQPPPPPYYPPEDKKTQ [Y200A], the “effect of a mutation on the interaction” value is “disrupting interaction”.

These data come from IntAct's records for PubMed 20972459.
